Experimental data from patent US20040161826A1, “Thermostable enzymes having aminotransferase activity, nucleic acids encoding them and methods of making and using them” (priority 1999, published 2004).

Legend:
[1] = molecular target: aromatic amino acid aminotransferase (Pyrococcus horikoshii, UniProt O59096); assay: Amino group transfer reaction with phenylalanine as donor, phenylpyruvic acid traced at 280 nm; type: biochemical, Pyrococcus horikoshi; conditions: receptor 2-ketoglutaric acid, pH 8.0, 25° C.
Method: Then, kinetic parameters of each substrate were compared. […] Next, a change in the amount of NADH was traced with a change in absorbance at 340 nm, and then kinetic parameters, Kcat and Km values were measured.
When hydrophobic substrate (phenylalanine) was used as an amino group donor, the amount of reaction product (phenylpyruvic acid) was traced with a change in absorbance at 280 nm, and then Kcat and Km values were measured.

[2] = substrate: N[C@@H](CC(=O)O)C(=O)O; assay: purified protein, by the assay type; conditions: other: amino group donor aspartic acid, receptor 2-ketoglutaric acid, pH 8.0, 25° C.
[3] = Optimum temperature and optimum pH from Kapp, DTNB reduction traced at 412 nm; type: biochemical, Pyrococcus horikoshi; conditions: substrates L-cysteic acid and 2-ketoglutaric acid
Method: The presence of aminotransferase activity can be determined by any means.
Optimum temperature and optimum pH were measured as described below using L-cysteic acid and 2-ketoglutaric acid as substrates. Optimum temperature was determined according to the temperature dependence of the Kapp value which was determined by varying the reaction temperature from 30° C. to 98° C. in 50 mM phosphate buffer (pH6.5), tracing an increase in absorbance at 412 nm resulting from reduction of 5,5′-Dithiobis ([…]) (DTNB), finding Kapp value from the initial velocity.
Optimum pH was determined according to pH dependence of the Kapp value which was determined under the measurement conditions as described above by maintaining the reaction temperature at 90° C., and varying the pH of an enzyme reaction solution from 3.4 to 7.5, finding Kapp.

[4] = Thermal stability: residual activity after heating; type: physicochemical, Pyrococcus horikoshi; conditions: pH 6.5, 95° C. for 6 hours, 0.1 mg/ml in 20 mM phosphate buffer
Method: Thermal stability was analyzed by measurement of residual activity after heating and with a differential scanning calorimeter (DSC). To measure residual activity after heating, this enzyme (0.1 mg/ml) was heated for a certain period of time at 95° C. and at 110° C. in 20 mM phosphate buffer (pH6.5) and quenched. Then, residual activity was measured.

[5] = Thermal stability: differential scanning calorimeter (DSC); type: physicochemical, Pyrococcus horikoshi
Method: Thermal stability was analyzed by measurement of residual activity after heating and with a differential scanning calorimeter (DSC).
In measurement with DSC, a DSC (type CSC5100™, Calolimetry Science) was used. Cell temperature was increased from 0 to 125° C. (1 K/min), and then a change in thermal capacity of the enzyme protein in 20 mM phosphate buffer (pH6.5) was measured. Enzyme concentration employed was 1 mg/ml.

[6] = pH stability by circular dichrograph (CD); type: physicochemical, Pyrococcus horikoshi; conditions: 25° C.
Method: pH stability was analyzed using a circular dichrograph (CD, type J-720W, JASCO Corporation). The pH of an enzyme solution (0.1 mg/ml) was varied from 1.0 to 13.0, a change in intensity of negative ellipicity[q] at 25° C. was measured, so that pH stability was found.

Isoelectric focusing = type: physicochemical, Pyrococcus horikoshi

With `N[C@@H](Cc1ccccc1)C(=O)O` [phenylalanine] the Kcat [1] was 12 s⁻¹.

B1: aromatic amino acid aminotransferase (Pyrococcus horikoshii OT3) (protein)
chain: MALSDRLELVSASEIRKLFDIAAGMKDVISLGIGEPDFDTPQHIKEYAKEALDKGLTHYGPNIGLLELREAIAEKLKKQNGIEADPKTEIMVLLGANQAFLMGLSAFLKDGEEVLIPTPAFVSYAPAVILAGGKPVEVPTYEEDEFRLNVDELKKYVTDKTRALIINSPCNPTGAVLTKKDLEEIADFVVEHDLIVISDEVYEHFIYDDARHYSIASLDGMFERTITVNGFSKTFAMTGWRLGFVAAPSWIIERMVKFQMYNATCPVTFIQYAAAKALKDERSWKAVEEMRKEYDRRRKLVWKRLNEMGLPTVKPKGAFYIFPRIRDTGLTSKKFSELMLKEARVAVVPGSAFGKAGEGYVRISYATAYEKLEEAMDRMERVLKERKLV
In the case of B1, the kcat [2] is reported as 0.18 s⁻¹ and the kcat/Km [2] is reported as 1.7 M⁻¹ s⁻¹.

B2: this enzyme: thermostable aminotransferase of Pyrococcus horikoshi JCM9974, 388 residues, homodimeric, expressed recombinantly in E. coli (protein, listed as Pyrococcus horikoshi)
chain: MALSDRLELVSASEIRKLFDIAAGMKDVISLGIGEPDFDTPQHIKEYAKEALDKGLTHYGPNIGLLELREAIAEKLKKQNGIEADPKTEIMVLLGANQAFLMGLSAFLKDGEEVLIPTPAFVSYAPAVILAGGKPVEVPTYEEDEFRLNVDELKKYVTDKTRALIINSPCNPTGAVLTKKDLEEIADFVVEHDLIVISDEVYEHFIYDDARHYSIASLDGMFERTITVNGFSKTFAMTGWRLGFVAAPSWIIERMVKFQMYNATCPVTFIQYAAAKALKDERSWKAVEEMRKEYDRRRKLVWKRLNEMGLPTVKPKGAFYIFPRIRDTGLTSKKFSELMLKEARVAVVPGSAFGKAGEGYVRISYATAYEKLEEAMDRMERVLKERKLV
In the case of B2, the optimum temperature ([3]; 50 mM phosphate buffer pH 6.5, 30° C. to 98° C.) is reported as 90 °C, the “optimum pH” value ([3]; 90° C., pH 3.4 to 7.5) is reported as 6.0 and the Kapp value ([3]; pH 6.5, 90° C.) is reported as 139 s⁻¹. The “residual activity after heating” value [4] was “remained stable, or was not deactivated”, the denaturation ([5]; DSC, pH 6.5) was “irreversible” and the enthalpy change ([5]; at the melting temperature, pH 6.5) was 2400 kJ/mol. The “melting temperature (Tm value)” value ([5]; pH 6.5, 20 mM phosphate buffer, 1 mg/ml, 1 K/min) was 120.1 °C, the “pH range over which the enzyme remains stable” value ([6]; for 24 hours or more, 0.1 mg/ml) was 4 to 11 and the a-helix content ([6]; pH 6.5) was 40%. For the same molecule, the isoelectric point (Isoelectric focusing) was 5.2.
